IntAct's records for PubMed 20078863

Columns and labels:
Thra, P63059-2 [1] = biological target: Thra, P63059-2
Thra, P63059-2 [2] = biological target: Thra, P63059-2; remark: listed apart in the source

Chain of Thra, P63059-2 (P63059 other isoform, or with tags, fused parts or gaps): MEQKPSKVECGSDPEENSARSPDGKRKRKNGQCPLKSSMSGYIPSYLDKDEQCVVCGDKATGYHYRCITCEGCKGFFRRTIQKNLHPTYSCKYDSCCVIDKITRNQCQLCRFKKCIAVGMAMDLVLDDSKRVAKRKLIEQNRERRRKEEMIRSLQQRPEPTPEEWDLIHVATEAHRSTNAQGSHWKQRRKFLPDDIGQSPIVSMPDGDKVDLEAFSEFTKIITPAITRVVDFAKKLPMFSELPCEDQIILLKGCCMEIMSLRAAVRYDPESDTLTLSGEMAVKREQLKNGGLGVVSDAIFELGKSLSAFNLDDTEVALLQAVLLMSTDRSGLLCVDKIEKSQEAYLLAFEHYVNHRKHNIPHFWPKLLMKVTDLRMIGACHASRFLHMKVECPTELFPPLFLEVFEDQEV
Chain of Transforming acidic coiled-coil-containing protein 1 (Homo sapiens), O75410-9 L580A;I581A (O75410 other isoform, or with tags, fused parts or gaps L580A;I581A): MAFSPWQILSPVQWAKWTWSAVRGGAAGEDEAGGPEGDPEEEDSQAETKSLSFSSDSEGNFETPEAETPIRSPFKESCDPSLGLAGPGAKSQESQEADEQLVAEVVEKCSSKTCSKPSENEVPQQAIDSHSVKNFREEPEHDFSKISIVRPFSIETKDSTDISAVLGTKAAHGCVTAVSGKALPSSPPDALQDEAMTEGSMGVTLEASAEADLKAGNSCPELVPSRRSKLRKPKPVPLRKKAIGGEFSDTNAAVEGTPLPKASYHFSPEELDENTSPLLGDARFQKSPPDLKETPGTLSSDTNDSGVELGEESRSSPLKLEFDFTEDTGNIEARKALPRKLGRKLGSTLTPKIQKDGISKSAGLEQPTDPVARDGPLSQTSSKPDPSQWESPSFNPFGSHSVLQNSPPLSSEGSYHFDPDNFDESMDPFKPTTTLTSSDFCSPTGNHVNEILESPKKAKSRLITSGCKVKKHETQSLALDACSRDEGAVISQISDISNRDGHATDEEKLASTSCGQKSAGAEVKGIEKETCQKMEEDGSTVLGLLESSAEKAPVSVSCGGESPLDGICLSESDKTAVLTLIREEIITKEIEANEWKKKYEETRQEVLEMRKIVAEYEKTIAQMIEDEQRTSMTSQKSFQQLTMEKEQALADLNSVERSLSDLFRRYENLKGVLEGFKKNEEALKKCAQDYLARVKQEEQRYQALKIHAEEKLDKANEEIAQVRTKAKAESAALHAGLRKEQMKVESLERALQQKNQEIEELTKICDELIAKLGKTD
Chain of Thra, P63059-1 (P63059 whole entry): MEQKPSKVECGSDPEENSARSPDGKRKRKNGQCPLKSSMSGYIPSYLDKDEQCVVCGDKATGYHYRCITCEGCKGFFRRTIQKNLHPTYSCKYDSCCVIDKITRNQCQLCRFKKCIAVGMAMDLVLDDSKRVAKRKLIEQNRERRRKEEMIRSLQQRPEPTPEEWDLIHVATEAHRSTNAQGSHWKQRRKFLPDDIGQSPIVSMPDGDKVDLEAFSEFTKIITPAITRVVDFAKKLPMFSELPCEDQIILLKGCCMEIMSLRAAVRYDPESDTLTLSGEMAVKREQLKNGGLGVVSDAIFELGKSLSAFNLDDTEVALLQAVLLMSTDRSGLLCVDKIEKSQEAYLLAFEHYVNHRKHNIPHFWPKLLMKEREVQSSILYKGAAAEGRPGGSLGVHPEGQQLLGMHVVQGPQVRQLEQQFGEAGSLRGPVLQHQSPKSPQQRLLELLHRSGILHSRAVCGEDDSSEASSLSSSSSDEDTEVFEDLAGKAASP
Chain of Transforming acidic coiled-coil-containing protein 1 (Homo sapiens), O75410-10 L170A;I171A (O75410 other isoform, or with tags, fused parts or gaps L170A;I171A): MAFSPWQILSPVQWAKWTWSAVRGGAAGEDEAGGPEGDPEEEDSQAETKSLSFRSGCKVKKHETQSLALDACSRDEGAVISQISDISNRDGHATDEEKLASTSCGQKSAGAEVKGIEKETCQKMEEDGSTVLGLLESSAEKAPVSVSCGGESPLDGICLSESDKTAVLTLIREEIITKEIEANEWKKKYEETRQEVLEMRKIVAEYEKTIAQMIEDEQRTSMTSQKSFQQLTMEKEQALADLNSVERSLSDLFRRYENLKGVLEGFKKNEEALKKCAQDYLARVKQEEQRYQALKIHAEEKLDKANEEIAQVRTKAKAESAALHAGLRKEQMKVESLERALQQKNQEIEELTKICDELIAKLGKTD

Question: With “Transforming acidic coiled-coil-containing protein 1 (Homo sapiens), O75410-9 L580A;I581A” as the substance, how does the “effect of a mutation on the interaction” value (Thra, P63059-2 [1]) read?
Answer: Its value is “decreasing interaction strength”.

Question: And the “effect of a mutation on the interaction” value (Thra, P63059-1)?
Answer: Its value is “disrupting interaction strength”.

Question: How did the “effect of a mutation on the interaction” value (Thra, P63059-2 [2]) turn out when “Transforming acidic coiled-coil-containing protein 1 (Homo sapiens), O75410-10 L170A;I171A” was run?
Answer: Its value is “disrupting interaction strength”.
